Measurements from patent publication US20240173425A1, “HUMAN CD33 ANTIBODIES AND GLUCOCORTICOID CONJUGATES” (Eli Lilly and Company, priority 2022, published 2024).

System: primary human monocyte cells
Assay: Antibody internalization (pHrodo Red, flow cytometry)
Assay type: cell-based
Settings: pHrodo-labeled antibodies 10 μg/mL, 2 hours at 37° C.
Experimental: Exemplified anti-human CD33 antibodies were labeled with pHrodo™ Red, amine-reactive dye (Thermo Fisher, P36014). The pH-sensitive dye was a non-fluorescent when outside the cells but fluoresces brightly in acidic low-pH lysosomes. This property allows visualization and qualification of the internalization of an antibody by flow cytometry. Human PBMCs (500 K/well) were incubated on ice in FACS buffer for 30 min, to quiesce baseline internalization. Cells were stained with pHrodo-labeled antibodies (10 μg/mL) in FACS buffer for 1 hour on ice then transferred to 37° C. for 2 hours. Cells were then stained with the remaining panel of surface detection marker: CD45 mAb (clone HI30); CD11b (clone ICRF44); CD14 (clone M5E2).

B1: Gemtuzumab: Gemtuzumab (hIgG4PAA), comparator anti-CD33 antibody in the internalization assay (antibody, chains of the INN, looked up, V domains shown)
VH: EVQLVQSGAEVKKPGSSVKVSCKASGYTITDSNIHWVRQAPGQSLEWIGYIYPYNGGTDYNQKFKNRATLTVDNPTNTAYMELSSLRSEDTAFYYCVNGNPWLAYWGQGTLVTVSS
VL: DIQLTQSPSTLSASVGDRVTITCRASESLDNYGIRFLTWFQQKPGKAPKLLMYAASNQGSGVPSRFSGSGSGTEFTLTISSLQPDDFATYYCQQTKEVPWSFGQGTKVEVK
modifications: hIgG4PAA
notes: Gemtuzumab (hIgG4PAA), comparator anti-CD33 antibody in the internalization assay
With B1 the “% Internalization” value was 50.55 ± 2.899% and the “% Internalization” value (listed as Gemtuzumab (hIgG4PAA)) was “about 50%”.
